# B1: Transmembrane protease serine 6 (Homo sapiens), Q8IU80 (parent)
# chain: MLLLFHSKRMPVAEAPQVAGGQGDGGDGEEAEPEGMFKACEDSKRKARGYLRLVPLFVLLALLVLASAGVLLWYFLGYKAEVMVSQVYSGSLRVLNRHFSQDLTRRESSAFRSETAKAQKMLKELITSTRLGTYYNSSSVYSFGEGPLTCFFWFILQIPEHRRLMLSPEVVQALLVEELLSTVNSSAAVPYRAEYEVDPEGLVILEASVKDIAALNSTLGCYRYSYVGQGQVLRLKGPDHLASSCLWHLQGPKDLMLKLRLEWTLAECRDRLAMYDVAGPLEKRLITSVYGCSRQEPVVEVLASGAIMAVVWKKGLHSYYDPFVLSVQPVVFQACEVNLTLDNRLDSQGVLSTPYFPSYYSPQTHCSWHLTVPSLDYGLALWFDAYALRRQKYDLPCTQGQWTIQNRRLCGLRILQPYAERIPVVATAGITINFTSQISLTGPGVRVHYGLYNQSDPCPGEFLCSVNGLCVPACDGVKDCPNGLDERNCVCRATFQCKEDSTCISLPKVCDGQPDCLNGSDEEQCQEGVPCGTFTFQCEDRSCVKKPNPQCDGRPDCRDGSDEEHCDCGLQGPSSRIVGGAVSSEGEWPWQASLQVRGRHICGGALIADRWVITAAHCFQEDSMASTVLWTVFLGKVWQNSRWPGEVSFKVSRLLLHPYHEEDSHDYDVALLQLDHPVVRSAAVRPVCLPARSHFFEPGLHCWITGWGALREGGPISNALQKVDVQLIPQDLCSEVYRYQVTPRMLCAGYRKGKKDACQGDSGGPLVCKALSGRWFLAGLVSWGLGCGRPNYFGVYTRITGVISWIQQVVT
# partner: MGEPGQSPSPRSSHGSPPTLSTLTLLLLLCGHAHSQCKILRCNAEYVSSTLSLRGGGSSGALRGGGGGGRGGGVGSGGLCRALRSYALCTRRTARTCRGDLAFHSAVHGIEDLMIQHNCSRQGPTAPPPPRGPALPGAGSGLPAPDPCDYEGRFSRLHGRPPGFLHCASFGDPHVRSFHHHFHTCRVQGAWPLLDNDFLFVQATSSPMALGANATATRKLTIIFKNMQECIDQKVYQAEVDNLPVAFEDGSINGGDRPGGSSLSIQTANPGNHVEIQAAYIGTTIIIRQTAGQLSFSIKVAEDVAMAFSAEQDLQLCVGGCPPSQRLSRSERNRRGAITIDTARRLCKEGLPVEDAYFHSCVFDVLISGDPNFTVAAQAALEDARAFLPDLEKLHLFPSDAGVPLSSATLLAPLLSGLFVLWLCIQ
# Variants of: B1
# Conditions: with rgmc_human HJV
row,Variant,effect of a mutation on the interaction
1,Y141C,with no effect

# Source: IntAct's records for PubMed 20704562
